Tests used:
Conditions in all cases: domain or fragment
[1] = biological target: Recombinant human FcRn conjugated with biotin (human) (UniProt P55899); assay: SPR; native Fc, pH 5.4
[2] = biological target: Recombinant human FcRn conjugated with biotin (human) (UniProt P55899); assay: SPR; heme-ox-exposed Fc, pH 5.4
[3] = biological target: Recombinant human FcRn conjugated with biotin (human) (UniProt P55899); assay: SPR; heme (Fe3+)-exposed Fc, pH 5.4

Sequence of Recombinant human FcRn conjugated with biotin (human) (P55899 24-297): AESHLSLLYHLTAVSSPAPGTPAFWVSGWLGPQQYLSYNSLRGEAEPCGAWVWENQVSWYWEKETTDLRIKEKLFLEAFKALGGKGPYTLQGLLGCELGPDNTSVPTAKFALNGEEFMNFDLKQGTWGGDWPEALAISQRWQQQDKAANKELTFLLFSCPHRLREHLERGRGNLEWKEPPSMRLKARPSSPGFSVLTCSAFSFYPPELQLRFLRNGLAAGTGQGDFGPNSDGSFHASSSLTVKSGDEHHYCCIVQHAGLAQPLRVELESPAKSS

Kd [1]: 9.1 nM
koff [1]: 0.00415 s⁻¹
Kd [2]: 8 nM
koff [2]: 0.00367 s⁻¹
Kd [3]: 7.7 nM
koff [3]: 0.004 s⁻¹
Substance: Fc-γ fragments obtained by papain digestion of polyclonal human IgG

From article PMC9960230
